This passage reports Kd results from paper PMC3762362, “Three-color single molecule imaging shows WASP detachment from Arp2/3 complex triggers actin filament branch formation” (eLife, 2013).

In general, Kd refers to the equilibrium constant for the complex coming apart. Low readings indicate higher affinity, high ones lower affinity.

The chains are these.
B1: Cy3-diVCA-A* (Δ486–488) (domain or fragment)
chain: CGGSGGSGGSGGSSGRDALLDQIRQGIQLKSVADGQESTPPTPAPTSGIVGALMEVMQKRSKAIHSSEDEDDEEDFEDDDEWED
modifications: Cy3 bis-maleimide (BMCy3) crosslinks the single Cys of the N-terminal extension of the two chains
notes: extension appended at the N-terminus; its Cys reacts with the Cy3 bis-maleimide; human N-WASP VCA, residues 432-505, three-residue deletion in the A-region; Covalent dimer; same design as m1; also called A* mutant; source: E. coli BL21(DE3) T1R, purified (DEAE, Glutathione Sepharose, TEV cleavage, SOURCE 15Q, Superdex 200); not shown: GST, N-terminal, cleaved
B2: Cy3-diVCA wild-type (N-WASP VCA covalently dimerized with a Cy3 bis-maleimide) (domain or fragment)
chain: CGGSGGSGGSGGSSGRDALLDQIRQGIQLKSVADGQESTPPTPAPTSGIVGALMEVMQKRSKAIHSSDEDEDEDDEEDFEDDDEWED
modifications: Cy3 bis-maleimide (BMCy3) crosslinks the single Cys of the N-terminal extension of the two chains
notes: extension appended at the N-terminus; its Cys reacts with the Cy3 bis-maleimide; human N-WASP VCA, residues 432-505 (second WH2 motif (V) through the C-terminus); Covalent dimer; also called diVCA w.t; wild-type diVCA; source: E. coli BL21(DE3) T1R, purified (DEAE, Glutathione Sepharose, TEV cleavage, SOURCE 15Q, Superdex 200); not shown: GST, N-terminal, cleaved
B3: Cy3-diVCA-V* (D435S/A436D) (domain or fragment)
chain: CGGSGGSGGSGGSSGRSDLLDQIRQGIQLKSVADGQESTPPTPAPTSGIVGALMEVMQKRSKAIHSSDEDEDEDDEEDFEDDDEWED
modifications: Cy3 bis-maleimide (BMCy3) crosslinks the single Cys of the N-terminal extension of the two chains
notes: extension appended at the N-terminus; its Cys reacts with the Cy3 bis-maleimide; human N-WASP VCA, residues 432-505, mutated in the V-region; Covalent dimer; same design as m1; also called V* mutant; source: E. coli BL21(DE3) T1R, purified (DEAE, Glutathione Sepharose, TEV cleavage, SOURCE 15Q, Superdex 200); not shown: GST, N-terminal, cleaved
B4: Cy3-diVCA-C* (I467A) (domain or fragment)
chain: CGGSGGSGGSGGSSGRDALLDQIRQGIQLKSVADGQESTPPTPAPTSGAVGALMEVMQKRSKAIHSSDEDEDEDDEEDFEDDDEWED
modifications: Cy3 bis-maleimide (BMCy3) crosslinks the single Cys of the N-terminal extension of the two chains
notes: extension appended at the N-terminus; its Cys reacts with the Cy3 bis-maleimide; human N-WASP VCA, residues 432-505, mutated in the C-region; Covalent dimer; same design as m1; also called C* mutant; source: E. coli BL21(DE3) T1R, purified (DEAE, Glutathione Sepharose, TEV cleavage, SOURCE 15Q, Superdex 200); not shown: GST, N-terminal, cleaved

The test deals with Rabbit muscle actin (monomeric) (rabbit, UniProt P68135 1-377). Nature of the test: fluorescence polarisation; fluorescence anisotropy competition: 20 nM VCA-AF488 with rabbit muscle actin (150 nM in the legend, 200 nM in the methods) and increasing Cy3-diVCA construct; fit to a competition binding isotherm; 10 mM imidazole pH 7.0, 50 mM KCl, 1 mM EGTA, 1 mM MgCl2, 0.5 mM DTT, 0.1 mM ATP; room temperature. To be noted: both partners purified.
Molecule B1 had a dissociation constant Kd of 250 nM. This lies in the sub-micromolar range.
As for B2, the Kd amounted to 340 nM. The Kd values of the last two molecules are within 1.5-fold of each other.
To B3 belongs 660 nM; to B4, 260 nM.
